pEC50: −log10 of the molar value.

EC50, fold difference in EC50 against the parent (control) anti-CD70 antibody and fold difference in EC50 against the parent antibody data for one substance are collected here from patent US20190276796A1.

For assay [1], the target named is murine FcγRIV (murine). Nature of the assay: competition flow cytometry on CHO DG-44 cells expressing murine FcγRIV; competitor 200 nmol/L Alexa Fluor 488 labeled anti-CD70 IgG1. Background: Flow cytometry measures light scatter and fluorescence of single cells or particles in a stream.
murine FcγRIV (murine), sequence (A0A0B4 entry or part of it limits assumed): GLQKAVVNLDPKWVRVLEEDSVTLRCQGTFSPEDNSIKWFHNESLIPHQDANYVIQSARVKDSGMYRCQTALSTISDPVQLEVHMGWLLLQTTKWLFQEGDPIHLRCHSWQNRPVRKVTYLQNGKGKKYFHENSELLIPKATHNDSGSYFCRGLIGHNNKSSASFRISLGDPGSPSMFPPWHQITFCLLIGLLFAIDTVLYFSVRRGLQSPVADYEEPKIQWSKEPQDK
In assay [2] the target is murine FcγRIV (murine). Briefly: competition flow cytometry on CHO DG-44 cells expressing murine FcγRIV; competitor Alexa Fluor 488 labeled anti-CD70 IgG1.
Assay [3] deals with human FcγRIIIA V158 (human) (UniProt P08637). Nature of the assay: competition flow cytometry on CHO DG-44 cells expressing human FcγRIIIA V158; competitor 50 nmol/L Alexa Fluor 488 labeled anti-CD70 IgG1.
human FcγRIIIA V158 (human), sequence (P08637 17-254 F176V): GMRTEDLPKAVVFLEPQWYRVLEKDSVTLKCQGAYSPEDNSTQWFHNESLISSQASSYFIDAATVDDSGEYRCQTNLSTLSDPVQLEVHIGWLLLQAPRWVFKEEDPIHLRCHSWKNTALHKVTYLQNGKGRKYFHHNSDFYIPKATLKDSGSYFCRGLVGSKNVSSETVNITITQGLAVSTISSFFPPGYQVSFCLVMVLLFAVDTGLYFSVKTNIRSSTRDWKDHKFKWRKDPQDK
The target is the same in assay [4]. Briefly: competition flow cytometry on CHO DG-44 cells expressing human FcγRIIIA V158; competitor Alexa Fluor 488 labeled anti-CD70 IgG1.

As a reminder, the pEC50 is the EC50 on a negative log10 scale, so that one unit is a factor of ten. Higher therefore signals a small EC50. Consider “h1F6 antibody from host cells cultured in the presence of 50 µM alkynyl fucose peracetate (non-core fucosylated anti-CD70 antibody)”, for which the pEC50 is 7.68 in assay [1] and 8.10 in assay [3]. In addition, the fold difference in EC50 against the parent (control) anti-CD70 antibody in assay [2] was determined as 18 fold. The fold difference in EC50 against the parent antibody in assay [4] came out at 14 fold.
